pKd: −log10 of the molar value.
Legend:
HLA-B*40:01 = experiment: IEDB peptide-MHC binding, purified MHC/competitive/radioactivity; filed as Kd, often an IC50 or EC50 that approximates it; ≥ and ≤ were set here for values at or beyond the usual limits of such assays
HLA-B*44:03 = experiment: as above
HLA-B*40:02 = experiment: as above
HLA-B*18:01 = experiment: as above
HLA-B*44:02 = experiment: as above
HLA-B*45:01 = experiment: as above
HLA-B*35:01 = experiment: as above
HLA-B*53:01 = experiment: as above
HLA-A*26:01 [1] = experiment: IEDB peptide-MHC binding, purified MHC/competitive/fluorescence; filed as Kd, often an IC50 or EC50 that approximates it; ≥ and ≤ were set here for values at or beyond the usual limits of such assays
HLA-A*03:01 = experiment: as above; settings: source organism: Trypanosoma cruzi
HLA-B*15:01 [2] = experiment: IEDB peptide-MHC binding, purified MHC/competitive/radioactivity; filed as Kd, often an IC50 or EC50 that approximates it; ≥ and ≤ were set here for values at or beyond the usual limits of such assays
HLA-A*30:02 = experiment: as above
HLA-A*01:01 = experiment: as above
HLA-A*26:01 [3] = experiment: as above; settings: source organism: Dengue virus 3 Martinique/1243/1999
HLA-B*15:01 [4] = experiment: IEDB peptide-MHC binding, purified MHC/competitive/fluorescence; filed as Kd, often an IC50 or EC50 that approximates it; ≥ and ≤ were set here for values at or beyond the usual limits of such assays; settings: source organism: Bacillus anthracis str. A0488
HLA-A*26:01 [5] = experiment: IEDB peptide-MHC binding, purified MHC/direct/fluorescence; filed as Kd, often an IC50 or EC50 that approximates it; ≥ and ≤ were set here for values at or beyond the usual limits of such assays; settings: source organism: Giardia lamblia ATCC 50803
HLA-B*51:01 = experiment: IEDB peptide-MHC binding, purified MHC/competitive/radioactivity; filed as Kd, often an IC50 or EC50 that approximates it; ≥ and ≤ were set here for values at or beyond the usual limits of such assays
HLA-A*32:01 = experiment: as above; settings: source organism: Dengue virus 4 Philippines/H241/1956
[6] = source organism: SARS coronavirus Tor2
[7] = source organism: Dengue virus 3 Martinique/1243/1999
[8] = source organism: Mammarenavirus machupoense
[9] = source organism: Dengue virus 4 Philippines/H241/1956
[10] = source organism: Vaccinia virus WR
[11] = source organism: Mammarenavirus lassaense
[12] = source organism: Dengue virus 1 Brazil/97-11/1997
[13] = source organism: Dengue virus 2 Jamaica/1409/1983
[14] = source organism: Mammarenavirus brazilense

TENLVIEGPT
pKd (HLA-B*40:01; [6]): ≤ 4.37 | pKd (HLA-B*44:03; [6]): ≤ 4.54 | pKd (HLA-B*40:02; [6]): 6.14 | pKd (HLA-B*18:01; [6]): ≤ 4.25 | pKd (HLA-B*44:02; [6]): 4.85 | pKd (HLA-B*45:01; [6]): 5.74

TPQPMELKY
pKd (HLA-B*35:01; [7]): 7.97 | pKd (HLA-B*53:01; [7]): 7.74

ETIVLLRAF
pKd (HLA-A*26:01 [1]; source organism: Influenza A virus (A/Wellington/22/2001(H3N2))): 7.56

KLSSEQLSK
pKd (HLA-A*03:01): 6.97

DLYRMYSRY
pKd (HLA-A*26:01 [1]; source organism: Actinobacillus pleuropneumoniae serovar 1 str. 4074): 6.52

EEPVSLLPLS
pKd (HLA-B*40:01; [8]): 5.13 | pKd (HLA-B*44:03; [8]): 5.73 | pKd (HLA-B*40:02; [8]): 5.21 | pKd (HLA-B*18:01; [8]): ≤ 4.42 | pKd (HLA-B*44:02; [8]): 5.24 | pKd (HLA-B*45:01; [8]): 6.25

SELAKGVAL
pKd (HLA-B*40:01; [6]): 8.47 | pKd (HLA-B*44:03; [6]): 6.76 | pKd (HLA-B*40:02; [6]): 7.85 | pKd (HLA-B*18:01; [6]): 5.95 | pKd (HLA-B*44:02; [6]): 6.88 | pKd (HLA-B*45:01; [6]): 6.40

VLMMLVAPSY
pKd (HLA-B*15:01 [2]; [9]): 8.00 | pKd (HLA-A*30:02; [9]): 7.58 | pKd (HLA-A*01:01; [9]): 6.00

VNIKYNPHI
pKd (HLA-B*15:01 [2]; [10]): 6.85

FEIKSAKKF
pKd (HLA-B*40:01; [6]): 5.77 | pKd (HLA-B*44:03; [6]): 7.45 | pKd (HLA-B*40:02; [6]): 6.21 | pKd (HLA-B*18:01; [6]): 5.97 | pKd (HLA-B*44:02; [6]): 7.80 | pKd (HLA-B*45:01; [6]): 4.74

QELYSPLFL
pKd (HLA-B*40:01; [6]): 6.99 | pKd (HLA-B*44:03; [6]): 6.65 | pKd (HLA-B*40:02; [6]): 6.81 | pKd (HLA-B*18:01; [6]): 5.25 | pKd (HLA-B*44:02; [6]): 6.69 | pKd (HLA-B*45:01; [6]): 5.66

YTALFSGVSW
pKd (HLA-A*26:01 [3]): 6.04 | pKd (HLA-B*53:01; [7]): 7.74 | pKd (HLA-B*44:02; [7]): 5.68

ADNLITEML
pKd (HLA-B*40:01; [11]): ≤ 4.56 | pKd (HLA-B*44:03; [11]): 4.91 | pKd (HLA-B*40:02; [11]): 6.38 | pKd (HLA-B*18:01; [11]): ≤ 4.44 | pKd (HLA-B*44:02; [11]): 5.21 | pKd (HLA-B*45:01; [11]): ≤ 4.11

DPVVYDAKF
pKd (HLA-B*35:01; [12]): 6.02 | pKd (HLA-B*53:01; [12]): 6.19

QSRKEFMSM
pKd (HLA-B*15:01 [4]): 7.18

SMANIFRGSY
pKd (HLA-B*15:01 [2]; [13]): 9.57 | pKd (HLA-A*30:02; [13]): 8.05 | pKd (HLA-A*01:01; [13]): 5.49

LLAISAVYF
pKd (HLA-B*15:01 [2]; [10]): 7.50

SQKTTWLPVL
pKd (HLA-B*15:01 [2]; [12]): 7.04

SESDLEFSW
pKd (HLA-B*40:01; [11]): 4.83 | pKd (HLA-B*44:03; [11]): 8.13 | pKd (HLA-B*40:02; [11]): 6.38 | pKd (HLA-B*18:01; [11]): 6.56 | pKd (HLA-B*44:02; [11]): 8.04 | pKd (HLA-B*45:01; [11]): 5.78

MVSIQWHAM
pKd (HLA-A*26:01 [5]): 5.43

EEGNLLDSYF
pKd (HLA-B*40:01; [6]): ≤ 4.38 | pKd (HLA-B*44:03; [6]): 7.93 | pKd (HLA-B*40:02; [6]): ≤ 4.15 | pKd (HLA-B*18:01; [6]): 4.97 | pKd (HLA-B*44:02; [6]): 8.41 | pKd (HLA-B*45:01; [6]): ≤ 4.69

LPAIVREAIK
pKd (HLA-B*35:01; [13]): 5.26 | pKd (HLA-B*51:01; [13]): ≤ 4.16 | pKd (HLA-B*53:01; [13]): 5.33

REVLSDREL
pKd (HLA-B*40:01; [6]): 7.81 | pKd (HLA-B*44:03; [6]): 5.95 | pKd (HLA-B*40:02; [6]): 6.99 | pKd (HLA-B*18:01; [6]): 5.13 | pKd (HLA-B*44:02; [6]): 5.91 | pKd (HLA-B*45:01; [6]): 5.86

MPLVMAWRTI
pKd (HLA-B*35:01; [9]): 6.15 | pKd (HLA-B*51:01; [9]): 7.21 | pKd (HLA-B*53:01; [9]): 7.97 | pKd (HLA-A*32:01): 6.87

GEPKTVKVL
pKd (HLA-B*40:01; [11]): 4.73 | pKd (HLA-B*44:03; [11]): ≤ 4.11 | pKd (HLA-B*40:02; [11]): 6.25 | pKd (HLA-B*18:01; [11]): ≤ 4.11 | pKd (HLA-B*44:02; [11]): ≤ 4.11 | pKd (HLA-B*45:01; [11]): ≤ 4.11

SEIQLQRLC
pKd (HLA-B*40:01; [14]): 5.75 | pKd (HLA-B*44:03; [14]): 6.49 | pKd (HLA-B*40:02; [14]): 7.16 | pKd (HLA-B*18:01; [14]): 4.98 | pKd (HLA-B*44:02; [14]): 6.55 | pKd (HLA-B*45:01; [14]): 6.00

EEAALCTFL
pKd (HLA-B*40:01; [6]): 6.76 | pKd (HLA-B*44:03; [6]): 6.77 | pKd (HLA-B*40:02; [6]): 6.08 | pKd (HLA-B*18:01; [6]): 4.93 | pKd (HLA-B*44:02; [6]): 6.34 | pKd (HLA-B*45:01; [6]): 7.42

REVSTAAVT
pKd (HLA-B*40:01; [6]): 6.95 | pKd (HLA-B*44:03; [6]): 5.16 | pKd (HLA-B*40:02; [6]): ≤ 4.68 | pKd (HLA-B*18:01; [6]): 4.77 | pKd (HLA-B*44:02; [6]): 4.80 | pKd (HLA-B*45:01; [6]): 7.52

— the Immune Epitope Database (IEDB)
